According to US20060257938A1, “Method of screening for drugs that block ligand binding to a lipid binding protein” (priority 2005, published 2006):
Where a chain is given by its changes, count along the chain named. “And” between values parts separate entries of the source, which are not always exact repeats. Identical values can stand only once.

B1: 115S1, 72A (protein, listed as Rattus norvegicus)
chain: AFDGTWKVDRNENYEKFMEKMGINVVKRKLGAHDNLKLTITQEGNKFTVKESSNFRNIDVVFELGVDFAYSAADGTELTGTWTMEGNKLVGKFKRVDNGKELIAVREISGNELISTYTYEGVEAKRIFKKE
modifications: PEPTIDE (1)...(131) wild-type rat intestinal fatty acid binding protein
B2: 102C, 72A (protein, listed as Rattus norvegicus)
chain: B1 chain with L102C, S115Q
modifications: PEPTIDE (1)...(131) wild-type rat intestinal fatty acid binding protein
B3: 117C, 72A (protein, listed as Rattus norvegicus)
chain: B1 chain with S115Q, Y117C
modifications: PEPTIDE (1)...(131) wild-type rat intestinal fatty acid binding protein
B4: 117D, 72A (protein, listed as Rattus norvegicus)
chain: B1 chain with S115Q, Y117D
modifications: PEPTIDE (1)...(131) wild-type rat intestinal fatty acid binding protein
B5: 38Q, 72A (protein, listed as Rattus norvegicus)
chain: B1 chain with L38Q, S115Q
modifications: PEPTIDE (1)...(131) wild-type rat intestinal fatty acid binding protein
B6: 14M 72M 117A (protein, listed as Rattus norvegicus)
chain: B1 chain with Y14M, A72M, S115Q, Y117A
modifications: PEPTIDE (1)...(131) wild-type rat intestinal fatty acid binding protein
B7: 117A, 72A (protein, listed as Rattus norvegicus)
chain: B1 chain with S115Q, Y117A
modifications: PEPTIDE (1)...(131) wild-type rat intestinal fatty acid binding protein
B8: 115Y1, 72A (protein, listed as Rattus norvegicus)
chain: B1 chain with S115Y
modifications: PEPTIDE (1)...(131) wild-type rat intestinal fatty acid binding protein
B9: 38M, 72A (protein, listed as Rattus norvegicus)
chain: B1 chain with L38M, S115Q
modifications: PEPTIDE (1)...(131) wild-type rat intestinal fatty acid binding protein
B10: 115V2, 72A (protein, listed as Rattus norvegicus)
chain: B1 chain with S115V
modifications: PEPTIDE (1)...(131) wild-type rat intestinal fatty acid binding protein
B11: 21Y, 72A (protein, listed as Rattus norvegicus)
chain: B1 chain with M21Y, S115Q
modifications: PEPTIDE (1)...(131) wild-type rat intestinal fatty acid binding protein
B12: 38Y, 72A (protein, listed as Rattus norvegicus)
chain: B1 chain with L38Y, S115Q
modifications: PEPTIDE (1)...(131) wild-type rat intestinal fatty acid binding protein
B13: 38T, 72A (protein, listed as Rattus norvegicus)
chain: B1 chain with L38T, S115Q
modifications: PEPTIDE (1)...(131) wild-type rat intestinal fatty acid binding protein
B14: 62P, 72A (protein, listed as Rattus norvegicus)
chain: B1 chain with F62P, S115Q
modifications: PEPTIDE (1)...(131) wild-type rat intestinal fatty acid binding protein
B15: 31Q, 72A (protein, listed as Rattus norvegicus)
chain: B1 chain with G31Q, S115Q
modifications: PEPTIDE (1)...(131) wild-type rat intestinal fatty acid binding protein
B16: 78F, 72A (protein, listed as Rattus norvegicus)
chain: B1 chain with L78F, S115Q
modifications: PEPTIDE (1)...(131) wild-type rat intestinal fatty acid binding protein
B17: 115T3, 72A (protein, listed as Rattus norvegicus)
chain: B1 chain with S115T
modifications: PEPTIDE (1)...(131) wild-type rat intestinal fatty acid binding protein

Assay: Probe fluorescence ratio response to oleic acid relative to ADIFAB2
Format: binding
Conditions: response relative to ADIFAB2
In short: (§1)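 Each fatty acid's response was expressed relative to ADIFAB2, the rI-FABP-L72A probe, as ΔR/ΔRreference. ΔR is the change in the background-corrected two-wavelength intensity ratio R=Fλ1/Fλ2 from its analyte-free baseline R0. Emission was read near about 420-480 nm for unbound and about 495-580 nm for FFA-bound probe.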

Molecule	DR/DR OA
B1	1.41
B2	0.11
B3	−0.24
B4	0.35 and 0.294
B5	1.842
B6	1.054
B7	0.93 and 0.947
B8	1.23
B9	1.630
B10	0.91
B11	1.982
B12	1.717
B13	1.547
B14	1.448
B15	1.313
B16	1.912
B17	0.46

Assay: Probe fluorescence ratio response to arachidonic acid relative to ADIFAB2
Format: binding
Conditions: arachidonic acid; response relative to ADIFAB2
In short: as §1

Molecule	DR/DR AA
B1	1.55
B2	0.14
B3	−0.17
B4	0.41 and 0.352
B5	1.976
B6	1.649
B7	1.27 and 1.332
B8	1.42
B9	1.850
B10	0.84
B11	2.378
B12	2.081
B13	1.598
B14	1.548
B15	1.024
B16	2.001
B17	0.57

Assay: Probe fluorescence ratio response to linoleic acid relative to ADIFAB2
Format: binding
Conditions: response relative to ADIFAB2
In short: as §1

Molecule	DR/DR LA
B1	1.51
B2	0.12
B3	−0.19
B4	0.44 and 0.380
B5	1.936
B6	1.956
B7	1.01 and 1.045
B8	1.38
B9	1.805
B10	0.87
B11	2.015
B12	1.818
B13	1.577
B14	1.572
B15	1.465
B16	1.955
B17	0.45

Assay: Probe fluorescence ratio response to linolenic acid relative to ADIFAB2
Format: binding
Conditions: response relative to ADIFAB2
In short: as §1

Molecule	DR/DR LNA
B1	1.51
B2	0.12
B3	−0.13
B4	0.44 and 0.407
B5	1.986
B6	2.031
B7	0.62 and 0.631
B8	1.27
B9	1.697
B10	0.93
B11	1.881
B12	1.884
B13	1.639
B14	1.581
B15	1.494
B16	2.033
B17	0.54

Assay: Probe fluorescence ratio response to palmitic acid relative to ADIFAB2
Format: binding
Conditions: response relative to ADIFAB2
In short: as §1

Molecule	DR/DR PA
B1	0.77
B2	0.09
B3	−0.12
B4	0.17 and 0.142
B5	1.551
B6	0.870
B7	0.32 and 0.331
B8	0.73
B9	1.131
B10	0.85
B11	1.094
B12	1.518
B13	1.022
B14	1.247
B15	1.039
B16	1.416
B17	0.49
